Source: the nanobody polyreactivity screen of Harvey et al. (2022)

Test: yeast display, Sf9 membrane polyspecificity reagent, FACS + sequencing; frameworks hold sequencing errors
Summary of the method: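 Genes from sorted yeast were amplified by colony PCR, read by MiSeq 2 × 250 sequencing and filtered on CDR length. These cells carried a synthetic nanobody library in Saccharomyces cerevisiae BJ5465 and were sorted by FACS into low and high (top ~1%) gates on anti-HA and streptavidin fluorescence. Polyreactivity is labelled according to the gate of origin.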
For “QVQLVESGGGLVQAGGSLRLSCAASGFTIGPNAMGWYRQPPGKERELVAAISQSGGSTYADSVKGRFTISRDNAKNTVYLQMNSLKPEDTAVYYCAAQRARVNRYGGKFGYWGQGTQVTVSS”, the “polyreactivity (PSR sort gate)” value was “high polyreactivity”.
With “QVQLVESGGGLVQAGGSLRLSCAASGSIFSINTMGWYRQAPGKERELVATITWSVGSTNYADSVKGRFTISRDNAKNTVYLQMNSLKPEDTAVYYCNADSSRWPYRLYRFYYWGQGTQVTVSS” the “polyreactivity (PSR sort gate)” value was “low polyreactivity”.
For “QVQLVESGGGLVQAGGSLSLTCAASGSTFDWYAMRLYRQAPGKERELVAASTSGGSTYYADSVKGRFTISRDNAKITVYLQMNSLKPEDTAVYYCAAESRQVRYILYYYWGQGTQVTVSS”, the “polyreactivity (PSR sort gate)” value was “low polyreactivity”.
With “QVQLVESGGGLVQAGGSLRLSFAASGRIFDYNVMGWYRQAPGKERELVADITSSGGATYYADSVKGRFTNSRDNAKNTVYLQMNSLKPEDTAVYYCYISYFTFYDDFYYWGQGTQVTVSS” the “polyreactivity (PSR sort gate)” value was “low polyreactivity”.
With “QVHLVESGGGLVQAGGSLRLSCAASGFIFSFYGMGWSRHAPAKESELVAAISSGGTTYYADSVKGRFTISRDNAKNSVYLQMNSLKPEDTAVYYCAGRVARRTTSVFSYFSRYNYWGQGTQVSVSS” the “polyreactivity (PSR sort gate)” value was “high polyreactivity”.
For “QVQLLESGAGLVQAGGSLRLSCADSGTFYGYAMGWYRQAPGKERELVAAITWSGGSTYYADSVKGRFTISRDNSKNTVYLQMISLKPEDTAVYYCAASLYSGYDSWGQGTQVTVSS”, the “polyreactivity (PSR sort gate)” value was “low polyreactivity”.
For “QVQLVESGGGLVQAGGSLRLSCAASGFIFNQYAMGWYRQAPGKERELVAAIRGSGGRTYYADSVKGRFTISRDNAKNTVYFQMNSLKPEDTAVYYCAKQRFGYRRSPGDYWGQGTQVTVSS”, the “polyreactivity (PSR sort gate)” value was “high polyreactivity”.
In the case of “QVQLVESGGGLVQAGGSLRLSCAASGSIFVNNAMGWYRQAPGKERELVAAISSRSSRTFYADSVKGRFTISRDNAKNTVYLQMNSLKPDDNAVFYCAVNNRAPDGEYWGLGTQVTVSS”, the “polyreactivity (PSR sort gate)” value is reported as “high polyreactivity”.
For “QVQLVESGGGLVQAGGSLRLSCAASGSIFRIYVMGWYRQAPGKERELVAAITNDGSTSYADSVKGRFTISRDNAKNTVYLQMNSLKPEDTAVYYCNAYRRRATYNGDYWGQGTQVTVSS”, the “polyreactivity (PSR sort gate)” value was “high polyreactivity”.
With “QVQLVESGGGLVQAGGSLRLSCAASGSTFGFYAMGWYRQAPGKEREFVAAITWSGGRTNYADSVKGRFTISRDNAKNTVYLQMNSLKPEDTAVYYCAAEGFVTWYRQGQVYYWGQGTQVTVSS” the “polyreactivity (PSR sort gate)” value was “high polyreactivity”.
With “QVQLEESGGGLVQAGGSLRLSCAASGRTYRYAMGWYRQSPGKERELVAAIRWSGGSTYYADSVKGRFTISRDNAKNTVYLQMNSLKPEDTAVYYCAADSYATRYYYWGQGTQVTVSS” the “polyreactivity (PSR sort gate)” value was “high polyreactivity”.
For “QVQLVESGGGLVQAGGSLRLSCAASGRIFRYNAMGWYRQAPGKERELVAAISGSGDRMYYADSVKGRFTISRDNAKNTVYFHMNSLKPEDTAVYYCAADVVWRQYGSWFYYWGQGTQVTVSS”, the “polyreactivity (PSR sort gate)” value was “high polyreactivity”.
In the case of “QVQLVESGGGLVQAGGSLRLSCAASGRIFYNYAMGWYRQAPGKERELVASINFSGTRTYYADSVKGRFTISRDNAKNTVYLQMNSLKPEDTAVYYCAARQAHGYYYWGQGTQVTVSS”, the “polyreactivity (PSR sort gate)” value is reported as “high polyreactivity”.
With “QVQLVESGGGLVQAGGSLRLSCDASGRSFYPYSMGWYRQAPGKERELVAAIDWSDGSTYYADSVKGRFTISRDNAKNTFYLQMNSLKPEDTAVYYCSAEDYNYWSYDYWGQGTQVTVSS” the “polyreactivity (PSR sort gate)” value was “low polyreactivity”.
For “QVQLVESGGGLVQAGGSLRLSCAASGSTFKPYAMGWYRQAPGKERELVAAITWSSGSTYYADSVKGRFTISRDNAKNTVYLQMNSLKPEDTAVYYCARDRYSVFEYDYWGQGTQVTVSS”, the “polyreactivity (PSR sort gate)” value was “low polyreactivity”.
With “QVQLVESGGGLVQAGGSLRLSCAASGRTFRANAMGWYRQAPGKERELVAAISKRGGNTYYADSVKGRFTISRDNAKNTVYLQMNSLKPEDTAVYYCAADFIGRDYDYWGQGTQVTVSS” the “polyreactivity (PSR sort gate)” value was “high polyreactivity”.
With “QDQLVESGGCLVQAGGSLRLSCAASGSTFPIYAMGWYRQEPGKERELVAPITWNGGRTYYADSVKGRFTISRDNAKNTVYLQMNSLKPEDTAVYYCNALYYHNLEGNYWGQGTQVTVSS” the “polyreactivity (PSR sort gate)” value was “high polyreactivity”.
In the case of “QVQHEESGGGLVQAGGRLRLSCAASGRIFKQYALGGYRQAPGKERELVAAISVRGGITYYADSVKGRFTISRDNAMNTVYLQMNSLKPEDTAVYYCAKRSFRTHTYDYWGHGTQVTVSS”, the “polyreactivity (PSR sort gate)” value is reported as “low polyreactivity”.
With “QVQLVESGGGLVQAGGSLRLRWAASGFIFGYYPMGWYRPAPGKERELVAAINSSGGSTYYADSVKGRFTISRDNAKNTVYLQMNSLKPADTAVYYCAARAYQRGIYWGQGTQVTLSS” the “polyreactivity (PSR sort gate)” value was “high polyreactivity”.
For “QVQLVESGGGLVQAGGSLRLSCAASGFTFYPYAMGWYRQAPGKESEFVAAITWRGASTYYADSVKGRFTISRDNAKNTVYLQMNSLKPEDTAVYYCNARWRVPRYRYDYWGQGTQVTVSS”, the “polyreactivity (PSR sort gate)” value was “high polyreactivity”.
In the case of “QVQLVESGGGLVQAGGSLRLSCAASGFIFRYYAMGWYRQAPGKERELVAAINRGGGTNYADSVKGRFTISRDNAKNTVYLQMNSLKPEDTAVYYCAAVIRTVRERYGYWGQGTQVTVSS”, the “polyreactivity (PSR sort gate)” value is reported as “high polyreactivity”.
In the case of “QVQLVESGGGLVQAGGSLRLSCAASGRTFAWYAMGWYRQAPGKERELVAAISNVGSTYYADSVKGRFTISRDNAKNTVYLHMNSLKPEHTAVYYCNADAVSTDGREYWGQGTQVTVSS”, the “polyreactivity (PSR sort gate)” value is reported as “low polyreactivity”.
With “QVQLVESGGGLVQAGGSLRLSSAASGITFRFYSMGWYRQAPGKEREFVAAISTRGGRTYYADSVKGRFTISRDNAKNTVYLQMKSLKPEDTAVYYFAADFYYRTVATVTSVARYDYWGQGTQVTVSS” the “polyreactivity (PSR sort gate)” value was “high polyreactivity”.
In the case of “QFQLVESGGGLVQAGGSLRLSCAASGITFVYYAMGGYRQAPGKERELVAAISRGGTSTYYADSVKGRFTISRDNAKNTVYLHMNSLKPEDTAVYYCNARYPKSYRTNYYYWGQGTQVTVSS”, the “polyreactivity (PSR sort gate)” value is reported as “high polyreactivity”.
In the case of “QVQLVESGGGLVQAGGSLRLSCAASGGIFDTYVMGWYRQAPGKERELVAAITWSGGSTYYADSVKGRFTISRDNAKNTVYLQMNSLKPEDTAVYYCAASGYPIYHDDYWGQGTQVTVSS”, the “polyreactivity (PSR sort gate)” value is reported as “low polyreactivity”.
In the case of “QVQLVESGGGLVQAGGSLRLSCAASGIIFSHNVMGWYRQAPGKERELVAAITYSGGSTYYADSVKGRFTISRDNAKNTVYLLMNSLKPEDTAVYYCNALGVSRRDYDYWGQGTQVTVSS”, the “polyreactivity (PSR sort gate)” value is reported as “low polyreactivity”.
For “QVQLVESGGGLVQAGGSLRLSCAASGRTFDGNTMGWYRQAPGKERELVAAITKRGGSTYYADSVKGRFTFSRDNAKNTVYLQMNSLKPEDTAVYYCAKGQSYSTRLSPYYYWGQGTQVTVSS”, the “polyreactivity (PSR sort gate)” value was “high polyreactivity”.
In the case of “QVQLVESGGGLVQAGGSLRLSCAASGSIFQFYAMGWYRQAPGKERELVAVITTSGVSTYYADSVKGRFTISRDNAMNTVYLQMNSLKPEDTAVYFCAADDYYLAGDYWGQGTQVTVSS”, the “polyreactivity (PSR sort gate)” value is reported as “low polyreactivity”.
For “QVQLVESGGGLVQAGGSLRLSCAASGSTFFPYAMGWYRQAPGKERELVADITYSGASTYYADSVKGRFTISRDNAKNTVYLQMNSLKPEDTAVYYCAALVWYGYYSLGQGTQVTVSS”, the “polyreactivity (PSR sort gate)” value was “low polyreactivity”.
With “QVQLVESGGGLVQAGGSLRLSCAASGNTIIRYPMGWYRQAPGKERELVAAISYSGGRTYYADSVKGRFTISRDNAKNTVYLQMNSLKPEDTAVYYCNAASRYGGDYWGQGTQVTVSS” the “polyreactivity (PSR sort gate)” value was “high polyreactivity”.
With “QVQLVESGGGVVQAGVSLRLSCAASGFTSHGYAKGWYRQAPGQERELVAAIDSVGSTYYADSVKGRFTISRDNSKNTVYLQMNSLKQEDTAVYYCAARRKRVSFYQEYDYWGQGTQVTVSS” the “polyreactivity (PSR sort gate)” value was “low polyreactivity”.
For “QVQLVESAGGLVQAGGSLRLSCADSGRLFYLYARGWYRQAPGKERELVAAISSTGRTTYADSVKGRFTISRDNAKNTVYLQMNSLKPEDTAVYYGAADFRLSGSYGGFDYWGQGTQVTVSS”, the “polyreactivity (PSR sort gate)” value was “low polyreactivity”.
For “QVQLVESGGGLVQAGGSLRLSCAASGFTIDAYAMGWDRQAPGKERELVAAISGSGGSTYYADSVKGRFTISRDNAKNTVYLQMNSLKPEDTAVYYCATDPGPYDYDYWGQGTQVTVSS”, the “polyreactivity (PSR sort gate)” value was “low polyreactivity”.
In the case of “QVQLVESGGGLVQAGGSLRLSCAASGFIFIYNAMGWYRQAPGKERELVAAISRSGGSTYYADSVKGRFTISRDNAKNTVYLHMNSLKPEDTAVYYCNARPGSRYYGYRLYYYWGQGTQVTVSS”, the “polyreactivity (PSR sort gate)” value is reported as “high polyreactivity”.
In the case of “QVQLVESGGGLVQAGGSLRLSCAASGLTFHRYAMGWYRPAPGKERELVAGISWSGASTYYADSVKGRFTISRDNAKNTVYLQMNSLKPEDTAVYYCAARRYYKYDWGQGTQVTVSS”, the “polyreactivity (PSR sort gate)” value is reported as “high polyreactivity”.
In the case of “QVQLVESGGGLVQAGGSLRLSCAASGSIFRPNAMGWYRQAPGKERELVAAINTSDDSTYYADSVKGRFTISRDNAKNTVYLQMNSLKPEDTAVYYCASDGVVPGRFFWPAHEYDYWGQGTQVTVSS”, the “polyreactivity (PSR sort gate)” value is reported as “low polyreactivity”.
With “QVQLVESGGGLVQAGGSLRLSCAASGITFQYYAMGWYRQAPGKERELVAAISSGGSTYYADSVKGRFTISRDNAKNTVYLQMNSLKPEDTAVYYCAAKRVFFGLNYDYWGQGTQVTVSS” the “polyreactivity (PSR sort gate)” value was “high polyreactivity”.
For “QVQLVESGGGLVQAGGSLRLSCAASGFIFRDYAMGWYRQAPGKERELVAAIDYSGGSTNYADSVKGRFTISRDNAKNTVYLQMNSLKPEDTAVYYCNAEYTWHRGYEYWGQGTQVTVSS”, the “polyreactivity (PSR sort gate)” value was “low polyreactivity”.
For “QVQLVESGGGLVQEGGSLRLSCAASGSTSRKYTMGWYRQAPGKERELVATISWSGGSTNYADSVKGRFTISRDNAKNNVYLQMNSLIPEDTAVYYCNAYVSPRYRGTRYYYWGQVTQVTVSS”, the “polyreactivity (PSR sort gate)” value was “high polyreactivity”.
With “QVQLVESGGGLVQAGGSLRLSCAASGFTFFSKYVMGWYSQAPRKERELVAAISSSGGTTYYADSVKGRFTISRDNAKNTVYLQMNSLKPEDTAVYYCAARLVSSTFQYNMYYWGQGTQVTVSS” the “polyreactivity (PSR sort gate)” value was “high polyreactivity”.
For “QVQLVESGGGLVQAGGSLRLSCAASGSIYTSNAMGWYRQAPGKERELVAVITWRSGRTYYADSVKGRFTISRDNAMNTVYLQMNSLKPEDTAVYYCDALRYPKQKFDSWGQGTQVTVSS”, the “polyreactivity (PSR sort gate)” value was “high polyreactivity”.
